Reference: publication PMC2603141 (Virology, 2008)

How the values were obtained:
[1] = target: the molecule itself; experiment: negative-stain electron microscopy
[2] = target: the molecule itself; experiment: reducing and non-reducing SDS-PAGE

B1: PIV 5 hemagglutinin-neuraminidase (HN) ectodomain beginning at residue 56, HN(ecto56) (domain or fragment)
chain: SPSSGLGSITDLLNNILSVANQIIYNSAVALPLQLDTLESTLLTAIKSLQTSDKLEQNCSWSAALINDNRYINGINQFYFSIAEGRNLTLGPLLNMPSFIPTATTPEGCTRIPSFSLTKTHWCYTHNVILNGCQDHVSSNQFVSMGIIEPTSAGFPFFRTLKTLYLSDGVNRKSCSISTVPGGCMMYCFVSTQPERDDYFSAAPPEQRIIIMYYNDTIVERIINPPGVLDVWATLNPGTGSGVYYLGWVLFPIYGGVIKGTSLWNNQANKYFIPQMVAALCSQNQATQVQNAKSSYYSSWFGNRMIQSGILACPLRQDLTNECLVLPFSNDQVLMGAEGRLYMYGDSVYYYQRSNSWWPMTMLYKVTITFTNGQPSAISAQNVPTQQVPRPGTGDCSATNRCPGFCLTGVYADAWLLTNPSSTSTFGSEATFTGSYLNTATQRINPTMYIANNTQIISSQQFGSSGQEAAYGHTTCFRDTGSVMVYCIYIIELSSSLLGQFQIVPFIRQVTLS
modifications: carbohydrate at 4 N-linked glycosylation sites; inter-chain disulfide bond (covalent dimers)
stoichiometry N [1]: 4 | stoichiometry N [2]: 2
